Test results published in the Immune Epitope Database (IEDB).

Columns and labels:
Experiment in all cases: IEDB peptide-MHC binding, purified MHC/competitive/radioactivity; filed as Kd, often an IC50 or EC50 that approximates it; ≥ and ≤ were set here for values at or beyond the usual limits of such assays
[1] = biological target: HLA-A*02:02
[2] = biological target: HLA-A*02:03
[3] = biological target: HLA-A*02:06
[4] = biological target: HLA-A*03:01; details: source organism: Vaccinia virus WR
[5] = biological target: HLA-A*11:01; details: source organism: Vaccinia virus WR
[6] = biological target: HLA-A*31:01; details: source organism: Vaccinia virus WR
[7] = biological target: HLA-A*33:01; details: source organism: Vaccinia virus WR
[8] = biological target: HLA-A*68:01; details: source organism: Vaccinia virus WR
[9] = source organism: Vaccinia virus WR
[10] = source organism: Mammarenavirus guanaritoense
[11] = source organism: SARS coronavirus Tor2
[12] = source organism: Mammarenavirus machupoense

Sequence	Kd [1, 9] [nM]	Kd [2, 9] [nM]	Kd [3, 9] [nM]	further results
PLPSLEYGA	11400	18900	≥ 42500	–
ELENKKVEYV	≥ 21400	3650	≥ 69800	–
YVILKDPRIA	6010	355	1900	–
FTELENKKV	19600	8080	6840	–
YVIGLLPQS	–	–	–	Kd [1, 10]: ≥ 77700 nM; Kd [2, 10]: ≥ 78100 nM; Kd [3, 10]: ≥ 48000 nM
LIKTLSPAHL	1850	356	10200	–
VTGSYNLVDT	≥ 70000	≥ 70400	≥ 69800	–
FTLLFQLCT	–	–	–	Kd [1, 11]: 1100 nM; Kd [2, 11]: 744 nM; Kd [3, 11]: 140 nM
QIFNIISYII	288	206	743	–
QLFNHTMFIL	–	–	–	Kd ([1]; source organism: Homo sapiens): 0.423 nM; Kd ([2]; source organism: Homo sapiens): 8.18 nM
TVDVRNIVT	13400	13100	≥ 54000	–
KVLSIMAFIL	2.32	684	19.1	–
LIVNSVLLFL	–	–	–	Kd [1, 11]: 3.67 nM; Kd [2, 11]: 90.4 nM; Kd [3, 11]: 10.8 nM
HAFLCLFLL	–	–	–	Kd [1, 11]: 20.7 nM; Kd [2, 11]: 46.5 nM; Kd [3, 11]: 1.22 nM
ILAGPMPVTA	–	–	–	Kd ([2]; source organism: Dengue virus 3 Martinique/1243/1999): 125 nM
GVPHSVFIA	5370	3630	101	–
YLMCLSPLM	–	–	–	Kd [1, 11]: 0.137 nM; Kd [2, 11]: 0.297 nM; Kd [3, 11]: 1.12 nM
CALVSDCAST	6410	146	2600	–
TIESAKTKI	16300	≥ 54100	≥ 51100	–
IAGGVCYYL	53.1	1680	1410	–
PLSPDTCLLA	11200	9310	19900	–
ITDQTVNICI	≥ 70000	≥ 70400	10400	–
LLDCIMYQS	–	–	–	Kd [1, 12]: 1530 nM; Kd [2, 12]: 2270 nM; Kd [3, 12]: 3280 nM
TQSGALEVLM	836	15400	2230	–
TQFNFNGHT	≥ 43300	14400	≥ 10000	–
YVSVMNFIPI	341	152	0.109	–
YTVEFDRDK	–	–	–	Kd [4]: ≥ 78000 nM; Kd [5]: 18900 nM; Kd [6]: ≥ 33400 nM; Kd [7]: ≥ 44800 nM; Kd [8]: 1.25 nM
